Data on 20 substances can be found in patent publication US11912794B2, “Modulation of structured polypeptide specificity” (BicycleRD Limited, priority 2011, dated 2024).

Ends that are not written are not given here.

The target in this experiment is T1, Biotinylated hPK (Homo sapiens, UniProt P03952).
T1 construct: IHPKA, from human plasma; purchased Innovative Research, Novi, MI, USA IHPKA; host or cells: human plasma
As to the kind of experiment: Phage selections, abundance of sequences in selection outputs. The experiment is classed as binding. The settings on record: for Frequency (relative abundance in the total selection outputs): randomised WPAR motif at positions 2, 3, 4 & 5 within the 06-34-03 sequence. As to the method:
Glycerol stocks of phage libraries were diluted to OD600=0.1 in 500 ml 2YT/chloramphenicol (30 μg/ml) cultures and phage were produced at 30° C. over night (15-16 hrs). Phage were purified and chemically modified as described in Heinis, et al., Nat Chem Biol 2009, 5 (7), 502-7 Biotinylated hPK (3 μg) (IHPKA, from human plasma, Innovative Research, Novi, MI, USA) was incubated with 50 μl pre-washed magnetic streptavidin beads (Dynal, M-280 from Invitrogen, Paisley, UK) for 10 minutes at RT. […] Blocked beads were then mixed with the blocked chemically modified phage and incubated for 30 minutes on a rotating wheel at RT. Beads were washed 8 times with washing buffer containing 0.1% Tween 20 and twice with washing buffer before incubation with 100 μl of 50 mM glycine, pH 2.2 for 5 minutes. Eluted phage were transferred to 50 μl of 1 M Tris-Cl, pH 8 for neutralization, incubated with 30 ml TG1 cells at OD600=0.4 for 90 minutes at 37° C. and the cells were plated on large 2YT/chloramphenicol plates. One or two additional rounds of panning were performed using the same procedures. In the second round of selection, neutravidin-coated magnetic beads were used to prevent the enrichment of streptavidin-specific peptides. The neutravidin beads were prepared by reacting 0.8 mg neutravidin (Pierce, Rockford, IL, USA) with 0.5 ml tosyl-activated magnetic beads (Dynal, M-280 from Invitrogen, Paisley, UK) according to the supplier's instructions.
The WPAR (SEQ ID NO: 18) motif identified from Example 1 was analysed in the context of the 06-34-03 peptide, in order to identify alternatives or improvements to the WPAR (SEQ ID NO: 18) motif. A library was constructed where positions 1, 6, 7, 8, 9 &10 of 06-34-03 were fixed and positions 2, 3, 4 & 5 were randomised (see ‘Randomisation of peptide domains—Library construction’ in Methods above). Selections against human plasma Kallikrein were performed at a variety of stringencies (see Phage selections' in Methods above). All output sequences were identified and analysed for target binding (see ‘Randomisation of peptide domains—Assay of binding of individual clones’ in Methods above). Table 17 lists each unique sequence, its relative abundance in the selection output (frequency), and a rank number according to target binding strength.

Setting [1] is: 2nd stringency from High (1st value of cell).
[2] abbreviates: 3rd stringency from High (2nd value of cell).
The mark [3] stands for this setting: 4th stringency from High (3rd value of cell).
The mark [4] stands for this setting: 5th stringency from High (4th value of cell).

T1 sequence (P03952 20-638): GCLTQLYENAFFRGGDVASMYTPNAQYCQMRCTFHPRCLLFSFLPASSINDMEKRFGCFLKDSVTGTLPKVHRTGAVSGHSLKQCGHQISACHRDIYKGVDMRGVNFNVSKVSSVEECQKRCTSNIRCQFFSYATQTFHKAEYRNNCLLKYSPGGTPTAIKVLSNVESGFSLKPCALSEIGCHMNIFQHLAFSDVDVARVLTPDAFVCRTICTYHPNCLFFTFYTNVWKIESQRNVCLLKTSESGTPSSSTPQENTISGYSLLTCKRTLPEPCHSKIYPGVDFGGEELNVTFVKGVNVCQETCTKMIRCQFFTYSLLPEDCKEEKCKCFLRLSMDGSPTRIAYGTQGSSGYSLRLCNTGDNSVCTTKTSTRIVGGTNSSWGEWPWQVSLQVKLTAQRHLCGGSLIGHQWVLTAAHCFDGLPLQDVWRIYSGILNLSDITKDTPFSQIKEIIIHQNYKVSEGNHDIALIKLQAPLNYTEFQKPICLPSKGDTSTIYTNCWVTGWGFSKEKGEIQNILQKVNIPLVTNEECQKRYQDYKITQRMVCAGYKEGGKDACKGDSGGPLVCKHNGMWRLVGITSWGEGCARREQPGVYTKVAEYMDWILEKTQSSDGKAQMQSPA

With “FPFR: phage clone: FPFR at positions 2-5 within the 06-34-03 sequence, TBMB-cyclised (also: TBMB-cyclised within the 06-34-03 context, the cysteines lie outside this motif)”, the “Relative abundance of motif in selection output” value under setting [1] turned out to be 19%; the “Relative abundance of motif in selection output” value under setting [2] was found to be 9%; the “Relative abundance of motif in selection output” value under setting [3] turned out to be 4%; the “Relative abundance of motif in selection output” value under setting [4] stood at 13%; the “Relative abundance of motif in selection output” value (stringency High) is 7%; the “Relative abundance of motif in selection output” value (stringency LOW) is recorded as 11%. On to “FPYR: phage clone: FPYR at positions 2-5 within the 06-34-03 sequence, TBMB-cyclised (also: TBMB-cyclised within the 06-34-03 context, the cysteines lie outside this motif)”, for which the “Relative abundance of motif in selection output” value runs as follows: under setting [1], 3%; under setting [2], 3%; under setting [3], 7%; under setting [4], 16%; (stringency High) 7%; (stringency LOW) 4%. “SEQ ID NO: 73 (CSWPARCTHQDLC; Synthetic sequence Kallikrein binder identified from selections using a randomised WPAR motif at positions 2, 3, 4 & 5 within the 06-34-03 sequence of PCT/EP2012/069898 (SEQ ID NO 58))”: the “Frequency (relative abundance in the total selection outputs)” value worked out at 24.

Regarding “SEQ ID NO: 74 (CSWPSRCTHQDLC; Synthetic sequence Kallikrein binder identified from selections using a randomised WPAR motif at positions 2, 3, 4 & 5 within the 06-34-03 sequence of PCT/EP2012/069898 (SEQ ID NO 58))”, the “Frequency (relative abundance in the total selection outputs)” value is 51. The same measure, in the same setting: under “SEQ ID NO: 76 (CSWLARCTHQDLC; Synthetic sequence Kallikrein binder identified from selections using a randomised WPAR motif at positions 2, 3, 4 & 5 within the 06-34-03 sequence of PCT/EP2012/069898 (SEQ ID NO 58))” stands 8; under “SEQ ID NO: 77 (CSFPYRCTHQDLC; Synthetic sequence Kallikrein binder identified from selections using a randomised WPAR motif at positions 2, 3, 4 & 5 within the 06-34-03 sequence of PCT/EP2012/069898 (SEQ ID NO 58))”, 12. On the same count and under the same terms, for “SEQ ID NO: 78 (CSFPFKCTHQDLC; Synthetic sequence Kallikrein binder identified from selections using a randomised WPAR motif at positions 2, 3, 4 & 5 within the 06-34-03 sequence of PCT/EP2012/069898 (SEQ ID NO 58))” the value was 4; for “SEQ ID NO: 79 (CSWAARCTHQDLC; Synthetic sequence Kallikrein binder identified from selections using a randomised WPAR motif at positions 2, 3, 4 & 5 within the 06-34-03 sequence of PCT/EP2012/069898 (SEQ ID NO 58))”, 1. With “SEQ ID NO: 80 (CSHPYRCTHQDLC; Synthetic sequence Kallikrein binder identified from selections using a randomised WPAR motif at positions 2, 3, 4 & 5 within the 06-34-03 sequence of PCT/EP2012/069898 (SEQ ID NO 58))”, the “Frequency (relative abundance in the total selection outputs)” value is on record as 2.

In the case of “SEQ ID NO: 81 (CSHPFRCTHQDLC; Synthetic sequence Kallikrein binder identified from selections using a randomised WPAR motif at positions 2, 3, 4 & 5 within the 06-34-03 sequence of PCT/EP2012/069898 (SEQ ID NO 58))”, the “Frequency (relative abundance in the total selection outputs)” value was 1. Still for that read-out and setting: for “SEQ ID NO: 82 (CSWPYRCTHQDLC; Synthetic sequence Kallikrein binder identified from selections using a randomised WPAR motif at positions 2, 3, 4 & 5 within the 06-34-03 sequence of PCT/EP2012/069898 (SEQ ID NO 58))” the value was 3. Turning to “SEQ ID NO: 83 (CRFPFKCTHQDLC; Synthetic sequence Kallikrein binder identified from selections using a randomised WPAR motif at positions 2, 3, 4 & 5 within the 06-34-03 sequence of PCT/EP2012/069898 (SEQ ID NO 58))”, the “Frequency (relative abundance in the total selection outputs)” value is reported as 1.

As to “SEQ ID NO: 86 (CSWPFRCTHQDLC; Synthetic sequence Kallikrein binder identified from selections using a randomised WPAR motif at positions 2, 3, 4 & 5 within the 06-34-03 sequence of PCT/EP2012/069898 (SEQ ID NO 58))”, the “Frequency (relative abundance in the total selection outputs)” value came to 7. Consider “SEQ ID NO: 87 (CSFPIRCTHQDLC; Synthetic sequence Kallikrein binder identified from selections using a randomised WPAR motif at positions 2, 3, 4 & 5 within the 06-34-03 sequence of PCT/EP2012/069898 (SEQ ID NO 58))”, for which the “Frequency (relative abundance in the total selection outputs)” value is listed as 1.

Turning to “SEQ ID NO: 90 (CSYPIRCTHQDLC; Synthetic sequence Kallikrein binder identified from selections using a randomised WPAR motif at positions 2, 3, 4 & 5 within the 06-34-03 sequence of PCT/EP2012/069898 (SEQ ID NO 58))”, the “Frequency (relative abundance in the total selection outputs)” value turned out to be 2. With “SEQ ID NO: 91 (CSWSARCTHQDLC; Synthetic sequence Kallikrein binder identified from selections using a randomised WPAR motif at positions 2, 3, 4 & 5 within the 06-34-03 sequence of PCT/EP2012/069898 (SEQ ID NO 58))”, the “Frequency (relative abundance in the total selection outputs)” value came to 10. On to “SEQ ID NO: 93 (CSYPFRCTHQDLC; Synthetic sequence Kallikrein binder identified from selections using a randomised WPAR motif at positions 2, 3, 4 & 5 within the 06-34-03 sequence of PCT/EP2012/069898 (SEQ ID NO 58))”, for which the “Frequency (relative abundance in the total selection outputs)” value was 1.

Turning to “SEQ ID NO: 94 (CSFPYKCTHQDLC; Synthetic sequence Kallikrein binder identified from selections using a randomised WPAR motif at positions 2, 3, 4 & 5 within the 06-34-03 sequence of PCT/EP2012/069898 (SEQ ID NO 58))”, the “Frequency (relative abundance in the total selection outputs)” value is recorded as 1. Turning to “SEQ ID NO: 95 (CSFPWRCTHQDLC; Synthetic sequence Kallikrein binder identified from selections using a randomised WPAR motif at positions 2, 3, 4 & 5 within the 06-34-03 sequence of PCT/EP2012/069898 (SEQ ID NO 58))”, the “Frequency (relative abundance in the total selection outputs)” value was found to be 1. For “SEQ ID NO: 96 (CSWHARCTHQDLC; Synthetic sequence Kallikrein binder identified from selections using a randomised WPAR motif at positions 2, 3, 4 & 5 within the 06-34-03 sequence of PCT/EP2012/069898 (SEQ ID NO 58))”, the “Frequency (relative abundance in the total selection outputs)” value was 1.
